Experimental data published in US20120316071A1 (published 2012).
Changes are numbered by the printed parent chain. Names may count otherwise.

Assays:
[1] = biological target: T1, rHuman ErbB2/Fc Chimera, CF (R&D Systems Cat#1129-ER) (human, UniProt P04626 23-652); experiment: ECL multispot (MSD), 20 nM Fab;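 further: purified Fab binding to antigens on multispot plates, read by electrochemiluminescence with a TAG-labelled detection antibody, 1 h Fab incubation at 20 °C, signal expressed relative to each well's blank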
T1 construct: Bought recombinant protein; also called human epidermal growth factor 2 receptor; Fc part of the bought chimera not given

[2] = biological target: T2, rHuman EGF R/Fc Chimera, CF (R&D Systems Cat#344-ER) (human, UniProt P00533 25-645); experiment: ECL multispot (MSD), 20 nM Fab;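 further: purified Fab binding to antigens on multispot plates, read by electrochemiluminescence with a TAG-labelled detection antibody, 1 h Fab incubation at 20 °C, signal expressed relative to each well's blank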
T2 construct: Bought recombinant protein; also called epidermal growth factor receptor; Fc part of the bought chimera not given

[3] = biological target: T3, rHuman HGF R/c-MET/Fc Chimera, CF (R&D Systems Cat#358-MT/CF) (human, UniProt P08581 25-932); experiment: ECL multispot (MSD), 20 nM Fab;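 further: purified Fab binding to antigens on multispot plates, read by electrochemiluminescence with a TAG-labelled detection antibody, 1 h Fab incubation at 20 °C, signal expressed relative to each well's blank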
T3 construct: Bought recombinant protein; also called HGF R/Fc; hepatocyte growth factor receptor; Fc part of the bought chimera not given

[4] = biological target: T4, rHuman Notch-1/Fc Chimera, CF (R&D Systems Cat#3647-TK) (human, UniProt P46531 19-526); experiment: ECL multispot (MSD), 20 nM Fab;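 further: purified Fab binding to antigens on multispot plates, read by electrochemiluminescence with a TAG-labelled detection antibody, 1 h Fab incubation at 20 °C, signal expressed relative to each well's blank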
T4 construct: Bought recombinant protein; Fc part of the bought chimera not given

[5] = biological target: T5, rHuman CD44/Fc Chimera, CF (R&D Systems Cat#3660-CD) (human, UniProt P16070 21-220); experiment: ECL multispot (MSD), 20 nM Fab
T5 construct: Bought recombinant protein; Fc part of the bought chimera not given

[6] = biological target: T6, rHuman IGF-1 sR, (IGF-1 sR), CF (R&D Systems Cat#391-GR) (human, UniProt P08069 31-932); experiment: ECL multispot (MSD), 20 nM Fab
T6 construct: Bought recombinant soluble receptor; also called insulin-like growth factor-1 soluble receptor

[7] = biological target: T7, rHuman P-Cadherin/Fc Chimera, CF (R&D Systems Cat#861-PC) (human, UniProt P22223 108-654); experiment: ECL multispot (MSD), 20 nM Fab
T7 construct: Bought recombinant protein; Fc part of the bought chimera not given

[8] = biological target: T8, rHuman Erythropoietin R/Fc Chimera, CF (R&D Systems Cat#963-ER) (human, UniProt P19235 25-250); experiment: ECL multispot (MSD), 20 nM Fab
T8 construct: Bought recombinant protein; also called EPO R; EPO R/Fc; Fc part of the bought chimera not given
T8 sequence (looked up): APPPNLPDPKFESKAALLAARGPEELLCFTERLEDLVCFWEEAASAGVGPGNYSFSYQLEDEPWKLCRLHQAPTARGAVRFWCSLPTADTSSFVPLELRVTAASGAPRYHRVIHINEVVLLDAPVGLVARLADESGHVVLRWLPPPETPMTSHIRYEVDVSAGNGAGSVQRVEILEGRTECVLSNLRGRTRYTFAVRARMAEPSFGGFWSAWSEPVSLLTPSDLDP

[9] = biological target: T9, Recombinant Human DLL4 (R&D Systems Cat#1506-D4/CF) (human, UniProt Q9NR61 27-524); experiment: ECL multispot (MSD), 20 nM Fab
T9 construct: Bought recombinant protein; also called delta-like protein 4; rHuman DLL4

[10] = biological target: T10, rHuman ErbB2/Fc Chimera, CF (R&D Systems Cat#1129-ER) (human, UniProt P04626 23-652); experiment: ECL multispot (MSD) binding assay, antigens spotted on plate, 20 nM Fab;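 further: fab incubated 1 h at 20 °C on antigen-spotted wells, bound Fab detected by TAG-labelled antibody, ratio of 4 or more over blank counted as a hit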
T10 construct: Bought recombinant protein; also called human epidermal growth factor 2 receptor; Fc part of the bought chimera not given

[11] = biological target: T11, rHuman EGF R/Fc Chimera, CF (R&D Systems Cat#344-ER) (human, UniProt P00533 25-645); experiment: as above
T11 construct: Bought recombinant protein; also called epidermal growth factor receptor; Fc part of the bought chimera not given

[12] = biological target: T12, rHuman HGF R/c-MET/Fc Chimera, CF (R&D Systems Cat#358-MT/CF) (human, UniProt P08581 25-932); experiment: as above
T12 construct: Bought recombinant protein; also called HGF R/Fc; hepatocyte growth factor receptor; Fc part of the bought chimera not given

[13] = biological target: T13, rHuman Notch-1/Fc Chimera, CF (R&D Systems Cat#3647-TK) (human, UniProt P46531 19-526); experiment: as above
T13 construct: Bought recombinant protein; Fc part of the bought chimera not given

[14] = biological target: T14, rHuman CD44/Fc Chimera, CF (R&D Systems Cat#3660-CD) (human, UniProt P16070 21-220); experiment: as above
T14 construct: Bought recombinant protein; Fc part of the bought chimera not given

[15] = biological target: T15, rHuman IGF-1 sR, (IGF-1 sR), CF (R&D Systems Cat#391-GR) (human, UniProt P08069 31-932); experiment: as above
T15 construct: Bought recombinant soluble receptor; The column head prints only 'IGF-1'; also called insulin-like growth factor-1 soluble receptor

[16] = biological target: T16, rHuman P-Cadherin/Fc Chimera, CF (R&D Systems Cat#861-PC) (human, UniProt P22223 108-654); experiment: as above
T16 construct: Bought recombinant protein; Fc part of the bought chimera not given

[17] = biological target: T17, rHuman Erythropoietin R/Fc Chimera, CF (R&D Systems Cat#963-ER) (human, UniProt P19235 25-250); experiment: as above
T17 construct: Bought recombinant protein; also called EPO R; Epo R; Fc part of the bought chimera not given
T17 sequence (looked up): T8 sequence (looked up)

[18] = biological target: T18, Recombinant Human DLL4 (R&D Systems Cat#1506-D4/CF) (human, UniProt Q9NR61 27-524); experiment: as above
T18 construct: Bought recombinant protein; also called delta-like protein 4; rHuman DLL4

[19] = biological target: T19, rHuman Erythropoietin R/Fc Chimera, CF (R&D Systems Cat#963-ER) (human, UniProt P19235 25-250); experiment: Multispot ECL (MSD), antigen spotted on plate, Fab 36 nM; blank spot 413
T19 construct: Bought recombinant protein; also called EPO R/Fc; Epo R; Fc part of the bought chimera not given
T19 sequence (looked up): T8 sequence (looked up)

[20] = biological target: T20, rHuman ErbB2/Fc Chimera, CF (R&D Systems Cat#1129-ER) (human, UniProt P04626 23-652); experiment: as above
T20 construct: Bought recombinant protein; also called human epidermal growth factor 2 receptor (ErbB2); Fc part of the bought chimera not given

[21] = biological target: T21, rHuman HGF R/c-MET/Fc Chimera, CF (R&D Systems Cat#358-MT/CF) (human, UniProt P08581 25-932); experiment: as above
T21 construct: Bought recombinant protein; also called HGF R/Fc; hepatocyte growth factor receptor (HGF R/c-Met); Fc part of the bought chimera not given

[22] = biological target: T22, rHuman CD44/Fc Chimera, CF (R&D Systems Cat#3660-CD) (human, UniProt P16070 21-220); experiment: as above
T22 construct: Bought recombinant protein; Fc part of the bought chimera not given

[23] = biological target: T23, rHuman IGF-1 sR, CF (R&D Systems Cat#391-GR) (human, UniProt P08069 31-932); experiment: as above
T23 construct: Bought recombinant soluble receptor; also called insulin-like growth factor-1 soluble receptor

[24] = biological target: T24, rHuman P-Cadherin/Fc Chimera, CF (R&D Systems Cat#861-PC) (human, UniProt P22223 108-654); experiment: as above
T24 construct: Bought recombinant protein; Fc part of the bought chimera not given

[25] = biological target: T19, rHuman Erythropoietin R/Fc Chimera, CF …; experiment: Multispot ECL (MSD), antigen spotted on plate, Fab 360 nM; blank spot 462
[26] = biological target: T20, rHuman ErbB2/Fc Chimera, CF (R&D …); experiment: as above
[27] = biological target: T21, rHuman HGF R/c-MET/Fc Chimera, CF (R&D …); experiment: as above
[28] = biological target: T22, rHuman CD44/Fc Chimera, CF (R&D Systems …); experiment: as above
[29] = biological target: T23, rHuman IGF-1 sR, CF (R&D Systems …); experiment: as above
[30] = biological target: T24, rHuman P-Cadherin/Fc Chimera, CF (R&D …); experiment: as above
[31] = biological target: T25, Recombinant Human DLL4 (delta-like protein 4) (human, UniProt Q9NR61 27-524); experiment: SPR, Fab on recombinant human DLL4; (±9.3) at r18c5
T25 construct: Bought recombinant protein; also called rHuman DLL4; Delta-like 4

[32] = biological target: T25, Recombinant Human DLL4 (delta-like …); experiment: SPR, Fab on recombinant human DLL4; column head x10^5 applied; (±4.16) at r18c3
[33] = biological target: T25, Recombinant Human DLL4 (delta-like …); experiment: SPR, Fab on recombinant human DLL4; column head x10^-3 applied as printed, but KD x ka implies 0.101 s^-1 unscaled; (±0.0153) at r18c4
[34] = biological target: T26, Recombinant Human DLL4 (R&D Systems Cat#1506-D4/CF) (human, UniProt Q9NR61 27-524); experiment: ECL (MSD) binding assay, DLL4 coated on plate, Fab 0.04 uM
T26 construct: Bought recombinant human DLL4 coated on the ECL plate; also called delta-like protein 4; Delta-like 4

B1: Fab VH3-23_IGHD2-21*01>3_IGHJ6*01 H100E/S108P/Y113G (EPG) Y109P & V2-13_IGLJ2*01 (Fab, V domains shown)
VH: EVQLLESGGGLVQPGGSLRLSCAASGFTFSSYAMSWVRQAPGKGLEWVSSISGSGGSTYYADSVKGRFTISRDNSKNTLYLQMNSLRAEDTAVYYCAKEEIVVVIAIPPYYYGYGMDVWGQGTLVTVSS
VL: SSELTQDPAVSVALGQTVRITCQGDSLRSYYASWYQQKPGQAPVLVIYGKNNRPSGIPDRFSGSSSGNTASLTITGAQAEDEADYYCNSRDSSGNHLVVFGGGTKLTVL
notes: Fab; NNK mutant of the EPG heavy chain; CH1 (tags) and lambda CL come from the vectors
In the case of B1, the “ECL signal ratio (column head gives no unit)” value [1] is reported as 1.5, the “ECL signal ratio (column head gives no unit)” value [2] is reported as 1.6 and the “ECL signal ratio (column head gives no unit)” value [3] is reported as 1.8. For the same binder, the “ECL signal ratio (column head gives no unit)” value [4] was 1.1, the “ECL signal ratio (column head gives no unit)” value [5] was 1.1 and the “ECL signal ratio (column head gives no unit)” value [6] was 1.4. The “ECL signal ratio (column head gives no unit)” value [7] was 1.9, the “ECL signal ratio (column head gives no unit)” value [8] was 1.8 and the “ECL signal ratio (column head gives no unit)” value [9] was 1.6.

B2: Fab VH3-23_IGHD2-21*01>3_IGHJ6*01 H100E/S108P/Y113G Y110E & V2-13_IGLJ2*01 (Fab, V domains shown)
VH: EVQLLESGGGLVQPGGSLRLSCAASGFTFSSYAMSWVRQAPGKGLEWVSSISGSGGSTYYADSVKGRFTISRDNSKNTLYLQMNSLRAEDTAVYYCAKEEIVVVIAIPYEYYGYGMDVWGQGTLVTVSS
VL: B1 VL
notes: Tested as Fab made in E. coli: VH joined to CH1 (His and Flag tags), VL joined to lambda CL; also called EPG Y110E
With B2 the “ECL multispot signal (ratio to blank; column not labelled)” value [10] was 1.7, the “ECL multispot signal (ratio to blank; column not labelled)” value [11] was 1.6 and the “ECL multispot signal (ratio to blank; column not labelled)” value [12] was 1.8. The “ECL multispot signal (ratio to blank; column not labelled)” value [13] was 1.5, the “ECL multispot signal (ratio to blank; column not labelled)” value [14] was 1.3 and the “ECL multispot signal (ratio to blank; column not labelled)” value [15] was 1.4. The “ECL multispot signal (ratio to blank; column not labelled)” value [16] was 2, the “ECL multispot signal (ratio to blank; column not labelled)” value [17] was 2.2 and the “ECL multispot signal (ratio to blank; column not labelled)” value [18] was 1.8.

B3: Fab VH4-28_IGHD7-27*01_IGHJ1*01 & L2_IGKJ1*01 (Fab, V domains shown)
VH: QVQLQESGPGLVKPSDTLSLTCAVSGYSISSSNWWGWIRQPPGKGLEWIGYIYYSGSTYYNPSLKSRVTMSVDTSKNQFSLKLSSVTAVDTAVYYCARTNWGAEYFQHWGQGTLVTVSS
VL: not shown
Binder B3 has an ECL signal [19] of 2980, an ECL signal [20] of 600 and an ECL signal [21] of 613. The ECL signal [22] was 679, the ECL signal [23] was 486 and the ECL signal [24] was 693. It also gave an ECL signal [25] of 4720, an ECL signal [26] of 647 and an ECL signal [27] of 581. The ECL signal [28] was 740, the ECL signal [29] was 535 and the ECL signal [30] was 636.

B4: Fab VH5-51_IGHD5-18*01>3_IGHJ4*01 G100K/G104T G24T/S28R/G35V & V3-4_IGLJ1*01 M94R/S96M (Fab, V domains shown)
VH: EVQLVQSGAEVKKPGESLKISCKTSGYRFTSYWIVWVRQMPGKGLEWMGIIYPGDSDTRYSPSFQGQVTISADKSISTAYLQWSSLKASDTAMYYCARRKYSYTYDYFDYWGQGTLVTVSS
VL: QTVVTQEPSFSVSPGGTVTLTCGLSSGSVSTSYYPSWYQQTPGQAPRTLIYSTNTRSSGVPDRFSGSILGNKAALTITGAQADDESDYYCVLYRGMGISYVFGTGTKVTVL
notes: Fab made in E. coli; VH was cloned in Plasmid A (CH1, His6 and Flag tags) and VL in Plasmid E (lambda CL); also called H:KT TRV & L:RM
In the case of B4, the Kd [31] is reported as 0.0403 µM, the kon [32] is reported as 2.53e+06 M⁻¹ s⁻¹ and the koff [33] is reported as 0.000101 s⁻¹.

B5: Fab VH5-51_IGHD5-18*01>3_IGHJ3*01 & V3-4_IGLJ1*01 (Fab, V domains shown)
VH: B4 VH with T24G, R28S, V35G, K100G, T104G, Y107A, Y110V
VL: B4 VL with R94M, M96S
notes: Fab; the JH germline segment IGHJ4*01 of the parent is swapped for IGHJ3*01; Constant parts come from Plasmid A (CH1, His6, Flag) and Plasmid E (lambda CL); also called J-swap mutant IGHJ3*01
Binder B5 has a Signal/Noise [34] of 3.1.
